Measurements as given in the DeepSol protein solubility set.

Test: soluble on expression in E. coli; label from the status in PepcDB or PDB records

Sequence	soluble on expression in E. coli
MGSDKIHHHHHHVAQDVITQAPLGFGLGLRTQHFDAVLNTEPDIDWFEVLSENYMVAGGKPRYYLKEIGERYPLVMHGVSLSIGSTDPLNMDYLKALKQLANDVQPQWISDHICWTSIHGVNSHDLLPLPYTEETVKHVAQRIKTVQDFLGRRILMENVSSYLSYQDSSMDEWEFVNAVAEAADCLILLDINNIYVSARNHNFNPLDYLNKINPKRVQQFHLAGHSDYGDYVIDTHDHDVPSCVWDLYCAALKRFGGISTMIERDANIPEFYALEAELTIARNIARDTLGKAHPLNAAKNRKNMHEGKVIA	not soluble
MGSDKIHHHHHHVARRKEHTHEQIRHMAISAVVEHLQCHGVDNLSLRKVATTIGYVPSTLINIFGSYQYLLLAVSEQTLLQLAAQLQLIKPTTPTKTIEQMAIVYSQFALANRRCFRLVFELTMTDDQPLPAAHLGLIKSLFSDVEFQLSQYFPSACEQEVEMMSRVLWGGIHGLTCLSLDGKLFETQSCLQDMLTSHVSSYIDGMSIKRNSNAAN	not soluble
MGSDKIHHHHHHVAVWNPWRGCHRYSEGCKFCYIHKGDMKRGMDTNLIVKSAKFNAPVAVNKQGHYIMKSGQLVYCCFSTDFLLEDADPWRDECWSMMKERPDLHFLFLTKRIERFSQCLPGDWGEGYENVTVGCTVENQHTADERLEIFSKLPIKHKNIALQPMLEAIDIEKYLEGIELVVVGGEYDRNARPFDYEWALAVREQCIRHQVSFSFRQCGTNFIQNGKLRRLNYGMLFKCARESNIDYQAGRE	not soluble
MGSDKIHHHHHHVDQKEISDIVQRILQDGPQTQEDGYCLVRAQARREWSLRLNNGRFERVSTARERGIGVQAFTPEGASGFASVDALTVEAGREAMKRAMSLAEHNAKLGAELNRAIYDASPLKTEGPNPAKLEFEHFSLAELQEQVMFLHKRLLNRSPEHSWQTSYRQVEDSWCIGRTDGTLVSYVVPRAVLMHQGTVRVQGRAKSALVQRSGVDAGLLLLEKEDSDLERRGVERGEFAKQVCVAPHLPSGHYPLIIDYGLAKGLAHEAFGHAVESDHMQESVLGEAGKLRKGLQVARPGVHIIDGPLEGDWAYQPFSANGLVRETVEIVKDGVLQAGLGDIFSAHKAGMPVSGAGRAESYGHIPLPRMTNIRLLVDHVLPLAPASDLMAEISQVRQTLRAAGELHDERKHLLLLGYRGGQVNPKTGDFVFQCDGIIDVADPNLTIYQPSIFSGKILSALQAIRVGLGGGCYDAIGTCGKGGQSVPSSGGSHRYLLLDRDEYVTLGGEQ	not soluble
MGSDKIHHHHHHVDQVNAYRNSAHLYDLDQRELVTADIPFYLEYAGSFGGGILELGCGTGRIAIPLAEAGHDITALDLSENMLAAFSAKLTNVAAGTKKKLALVQGNMADFSLRKTFDMIIAPFRAFQALTRAEDINGCLACMREHLNDGGIVIINVFRPFGTLDESWCYPETVQWERWDDATGSKVVKKHWGQRIDVENQIIYPGFAYEVMASNGVVERFADNLALKYYYYEQLTTLLQDAGFRIKEEYGWYDKSPIENGRELIFVCTR	not soluble
MGSDKIHHHHHHVENWDEVRTAYQVARLGTVSGAADVLGVHHATVIRHIDAIEARLGVKLFQRHARGYTATEAGLDLLRVAQATDDQFSQLVGRLKGQGDEVSGELVVTSLSSMAPMLAPALAEFQQLHPDLVIRYLTGDRLFRLEYGEAHVALRAGAAPEQPDNVVQPFVAQRLALYASREYVERHGMLKGQDDMVNHRFIASDNENTRAPFERWLRSTIPAENIVFRCSDAVAGHQAIRAGAGIGFVSLWEAASSPDLVMMMDPHDEWSGKIWLVTHVDLHRTNKVQSFVRFLKEHAKSWPQ	not soluble
MGSDKIHHHHHHVIALLKAYKFRLYPTKPQQEYFVKTFGCVRFVYNKMLEERIQLYEDSKLNPDAKQKLPTPAKYKPEFPFLKEVDSLSLANAQMDLNQAYQNFFRDQSVGFPKFKSKHNDRASYTTNNLKGSIRIEDRKVKLPKIGFVKLKQHRPFDGVIKSATVSMTKTRKFFISILVDQAEAQWVPAQNKVGIDLGLEHFAILTNDEWVSEKVANPRFLRKSEEKIKKAQRALSRKKIGSKNREKARIILAKKHEKIAHQRQDFLHKLSKRMVDDNQVIVVETLKSKNMMKNHKIAKSIGDVSWYGFVRQLEYKCAFYGRTLIKADQWYASTQICSSCGVKGEKKTIDVREWMCTCGAHHDRDINASINLLLLAD	not soluble
MGSDKIHHHHHHVKIAIASDHAAFELKEKVKNYLLGKGIEVEDHGTYSEESVDYPDYAKKVVQSILSNEADFGILLCGTGLGMSIAANRYRGIRAALCLFPDMARLARSHNNANILVLPGRLIGAELAFWIVDTFLSTPFDGGRHERRIRKIDEV	soluble
MGSDKIHHHHHHVLKKALRQHFRQSCTEQDLHRWFDPLDITLADEKRLEVRFPHRFFAEWFSTQVQGRFESELNTFMGEGTTVEYTTGCCPVLSSSPLPPAAVSKKLSAPFGREYTFETFISNKRNFFPVASARELARQEEEIRYNPFVLCGPAGSGKTHLLRAIANELSKTVYKKHIFISTIDDLGTLFSNNGSGDPAQVRQQLSACHYLLLDDLHRLREQPQLQDELTVLFNSFYDRQKQMVFTCPGKLSELDFLETGLRSRLEWGLIVTMKPPDLEILVTFIQRQCKLHKLQLAKEHVFTLAQRFRDFRHLQGVLNRLTAYRDLVNRTLADTDFEQVLSHTEAGAGRPLTADRIIALCAGRFSLPPKDVTGDKRHQKVVLARQVAMYLCRELMGSSYPVLGRTFGGKDHSTAMYAVKKIKKMIDSDKTTRQLVTELKKQCLSGAE	not soluble
MGSDKIHHHHHHVLNLGHKLLQYEAQKLISFHTPGHKGKAEFFTDLHFPDQDLTELPGLDMLHSPAGVIAQAQARAAAVYQSDASFYLINGATVGNQGMFMALAGTGKRGKDLQLPKVLVERQSHRSVFSALVLSGCEPEYIPSVVHPEFGLPLGLKSIAEVDLGEFLGVHLTYPGYYGTLPDLAMIAAQRDRQAVQVSILVDQAHGSHYLSPLFPKGALAYGADLVLCSTHKTLSALTQAAMLHVQGSRIPLSALKEALELLQSSSPSYLLMASLERAVEHALESRRWELLHEAVQELHHRVGGSLRILNPQDVGTYGIAGLDWTKIMINTQRLGVAAPRCVEHLRKSYGIDPELWDDKNILFLLGIGNTPEEVEILTKGLLSLASLNKDVVASPEEMVFEIPLPPVRLTPRQAYFARKRKIPLAESVGHIVGESISPYPPGIPWIVMGEEMTPEILELLTRHKGRWQGWEDAGQGVWIIEEV	not soluble
MGSDKIHHHHHHVLNNLGQTRYVVPRPHPQLVTTRTLVMQRIDGFNFDDVTGMQDAGIDTEDVIRTGMVAFMEGALIHGIFHGDLHGGNLFVLPDGRTALLDFGITARLDDDRRRAFLRLMMTATTNDLTGQMAALRDLGALPLDTDLQAVIRDLRLDEAPIDPTTLSGEEMVAEVQRVVKALLSYGARLPKELMLYVKNMVFLDGAIARLAPDLDLLAEVANISMMFASRHGERLMTEIGIDAANMQVNLDSVKAGFGVDLSTDRLTYRELQERRELIQKRMRSHVERTRRSAN	not soluble
MGSDKIHHHHHHVMARIHNRDWCLACTSSLKELPRHVYFRAYSLKGGTCVQGHEHVWWQFLFARNGLMQVQAGATTLTLPPDYGVWIPPGCVHTLWIGEEVELESLYIEPTAVAIQDQEPRVVMVDEFVRAFIHHGCTSIPVKYDEDGADGRKVKVLLDSLQSLPDAPFNLPFPTEPRLLEVCLTIQSAPHLAHTLDESAGLARMSSRTFTRHFLRATGLPYHTWRQRMRLLGSLEMLRSDITVTEVALTIGYSTPSAFTHAFKQLFGKSPSRFTRPEPK	not soluble
MGSDKIHHHHHHVQDKNFDKLAQKFAKNIYGTPKGDIRAAVLWRDLAPALAKLGDRKLRVLDAGGGFGYFSQKLARLGHEVVLCDISAEMLAQAQEQIDASPEPLAIQLIHAPIQALSVEQHGYFDIILCHAVVEWLTDAKPTMAGLLTMLKPAGLFSLMFYNKEAMRFHALVSGNFDYVAADLKVKKKVQLTPTHPLYIQEVKEWFSDWQMSLISQSGVRVIHDYLKKSQPVDFDYQKLLQMELEYSQREPYISLGRYVHFLGQSPAV	not soluble
MGSDKIHHHHHHVSLIQEYKKQQNWRDWERYLESIPYSGEDTVIDLGCSVGDVSQLFSLRVKNVIGIDVNQDFIDICESQKSVNQTFICSDFLSLDSQLIESTNGIWSSFSLSYLRNPLDFLIYLNASMKQGGWIALLDISCFISGNLAKKSQYYEKVLKFELESYKSGIYDFDFGSKMLSMLQNAGFDIVYLDNDVTDPELNFTGAASAEIIHGWAARLNRMNRLKDEIGAEYPDFCNELLANLSSDTHEKRQNVRFIVARKPITSVNKATDSCAGVHSQ	not soluble
MGSDKIHHHHHHVSNGAATRVRRSREKILGAAESVFLQHGFLGTNMDVIADTAGVSKQTVYAHFKSKEALFIDVVEAMTGGAAEEIGEDIEDVFGDRKAEDYLLEVAIDQLTVVLTPRLMQLRRMVIGEVERFPELGRSLYVNGPIRSITRLTRACAHYTRIGELITPDPQAAATQFNWIVMGAPTNAAMLLGDAGIPTSAQLQAHATEAVRIFLCAYGAKQMHPR	not soluble
MGSDKIHHHHHHVSQPTSSLVGKSRASIYRDLVLSAQGVRFGKTAGKDVDVIKYLFALLILLAFSAKGYHPKEAHEPLTTLAVDAMAQCGINLSESTRLQLMQGNLAMDEGAGKLPKELMNTSFAKAVFPMTKRIHNWHFYHPDKTADAQRLAGKTDMSMARLWQAAQAGLEQAPAEHKAYYLGAIIHLIQDVTVPAHAVPVYHGPKIIAWQREFAPLVNYLGFGFRGIFVIHDPVDDWPVNSTGAEQPIAAIPCPELHAASSNLSANFDALRTRVARQTLTALDNPIPGCAAPWRLFWREDLGHRYFAGYTQGIKPFGRANSLSGEGISIDGRPCEPDYQGFVETRHRAAIEATMAALQLSQLGVVSPVPTEAQ	not soluble
MGSDKIHHHHHHVTEPIRLYYWPAPNFGDALSHLVVEHVSGRPVVNARPKQAELFALGSLMHVISRHWTERVRGEGPLLWGTGLLNPFYRKEFLENVRVRLLRGPISAAFLRLKMTEFGDPGLLADEAVGPVEDRHDRVAIVPHHSQMDDPRFVEMVEADPALHLIDVRLDPVTVCREIAASAHVFSASLHGLIVADAYGVANTWMDPEAQGRLKYHDYAAAIGRDMIAPVEIRDVPKAARTARDRPFPYADGIARCRESLHRHFPAELRAPLRATAS	not soluble
MGSDKIHHHHHHVTLDQLLMFRTVAEAGSLKAASNKLHKTQPAISQSIKQLESQLDLILFNREGYRLAITEQGRKLLQHTLRVLNEAQEMKQVAKHLAKGNEASITLAFEASFNLARILPILELTQNEFPYTQIILKQEFLTGALEALNQDKAEIIISAGGIEPIRSSHLELAYLFSGSLLDVAAPRLLSRYPNLSHVRELVNEYQIVIQDTGTGTANIEFGVQAGQRRWYVNDFYTKKMLIQSGMGWGKLPHYMIEDSLKQGALIALDLRERQNNIQLDYYVMRKPHSPLGPVAQALWQKLIAFSLS	not soluble
MGSDKIHHHHHHWIAFAGNMNTTIDNESDELKAIDYKDLEVKEKLGEGASGEVYRAMYGGSDVALKLFRGAATSDGLPEDEIKVMQRLGPDENSVSILGSVVGAPEGQLAALLPLVPPSFTILGNPPTFDSCTRDTYPKDKTFSLRTAIEILEAIARVCAHLHSRGLSHGDLYAHNILVQIGVDGEPTRTKLSDYGAASFSSVLKPHQVALLERIEVRAFGALAEELMDRLEEADAEGVAHRLSSVIVKSMRADVASRPSFSEIHQEMVAFLKEV	not soluble
